Measured values from patent US20210277100A1 (SCHOLAR ROCK, published 2021).

What was measured:
TGFβ3 growth factor = molecular target: T1, TGFβ3 growth factor (UniProt P10600 301-412); assay: BLI, OctetRed 384 (FIG. 4)
T1 construct: domain: growth factor
T1 sequence (looked up): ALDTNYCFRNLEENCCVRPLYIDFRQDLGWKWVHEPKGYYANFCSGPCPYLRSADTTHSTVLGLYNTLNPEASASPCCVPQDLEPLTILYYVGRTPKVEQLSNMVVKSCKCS
Protocol: (§1) The binding affinities of the proTGFβ1-GARP complex-selective antibody candidates to proTGFβ1-GARP complexes were measured by biolayer interferometry on an OctetRed 384 (Fortebio, Menlo Park, Calif.). Strepavidin biosensors (Fortebio, Cat. No. 18-5020) were loaded with biotinylated sGARP-proTGFβ1 complex at 20 μg/ml in sodium acetate buffer, pH 5, washed in the same buffer and transferred to wells containing 10 μg/mL proTGFβ1-GARP complex-selective antibody candidates in the same buffer. The dissociation constant was obtained by non-linear fitting of the responses to a steady state algorithm using Octet software (Table 4). Similar affinities were obtained by kinetic fitting.
(§2) To ascertain binding specificity, 4B1C1 and 4B16B9 were screened as above for binding to TGFβ1, TGFβ2, TGFβ3, proTGFβ1-LTBP1, proTGFβ1-LTBP3 and proTGFβ1-LRRC33. As described above, antibodies were tested at 10 μg/ml and antigens at 20 μg/ml and tested under the following conditions.
(§3) proTGFβ1-GARP complex-selective antibody candidates were measured by biolayer interferometry on an OctetRed 384 (Fortebio, Menlo Park, Calif.) for selectivity for proTGFβ1-GARP complex over other protein complexes (FIG. 4).

TGFβ1 growth factor [1] = molecular target: T2, TGFβ1 growth factor (human, UniProt P01137 279-390); assay: BLI, OctetRed 384 (FIG. 4)
T2 construct: domain: growth factor; also called TGFb1 (soluble form)
Protocol: as §1, §2, §3

TGFβ2 growth factor = molecular target: T3, TGFβ2 growth factor (UniProt P61812 303-414); assay: BLI, OctetRed 384 (FIG. 4)
T3 construct: domain: growth factor
T3 sequence (looked up): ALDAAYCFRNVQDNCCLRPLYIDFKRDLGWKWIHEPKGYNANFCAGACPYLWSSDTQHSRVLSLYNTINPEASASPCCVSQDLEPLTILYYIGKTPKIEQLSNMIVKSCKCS
Protocol: as §1, §2, §3

rGARP-proTGFβ1 = molecular target: T4, rGARP-proTGFβ1; assay: biolayer interferometry (OctetRed 384)
T4 construct: not given
Protocol: as §1, §3

[2] = molecular target: human proTGFβ1 in complex with GARP expressed on transfected HEK293 or Sw480 cells (human, UniProt Q14392 20-662; P01137 30-390); assay: cell-based or functional assay
TGFβ1 growth factor [3] = molecular target: T2, TGFβ1 growth factor; assay: BLI, OctetRed 384, antigen loaded on biosensor
Protocol: as §1, §2

hGARP-TGFβ1-LAP = molecular target: T5, hGARP-TGFβ1-LAP (human); assay: biolayer interferometry (OctetRed 384)
T5 construct: not given
Protocol: as §1, §3

Chain of human proTGFβ1 in complex with GARP expressed on transfected HEK293 or Sw480 cells (Q14392 20-662, chain 1 of 2): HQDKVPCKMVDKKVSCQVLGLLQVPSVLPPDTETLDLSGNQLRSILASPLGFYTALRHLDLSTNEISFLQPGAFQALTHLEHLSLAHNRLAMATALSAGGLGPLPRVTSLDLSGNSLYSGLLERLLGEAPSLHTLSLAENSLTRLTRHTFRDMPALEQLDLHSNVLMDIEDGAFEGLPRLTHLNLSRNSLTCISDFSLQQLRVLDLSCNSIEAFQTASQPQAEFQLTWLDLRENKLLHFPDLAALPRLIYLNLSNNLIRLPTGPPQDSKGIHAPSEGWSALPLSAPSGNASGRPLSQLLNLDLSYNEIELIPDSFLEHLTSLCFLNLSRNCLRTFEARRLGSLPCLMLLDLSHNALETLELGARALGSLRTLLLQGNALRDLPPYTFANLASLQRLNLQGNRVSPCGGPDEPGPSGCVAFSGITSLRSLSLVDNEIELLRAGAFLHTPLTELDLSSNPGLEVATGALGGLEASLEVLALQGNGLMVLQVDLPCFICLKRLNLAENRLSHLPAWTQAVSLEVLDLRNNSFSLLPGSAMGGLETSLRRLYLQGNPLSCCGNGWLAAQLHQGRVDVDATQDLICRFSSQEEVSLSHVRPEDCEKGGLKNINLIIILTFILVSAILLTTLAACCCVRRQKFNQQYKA
Chain of human proTGFβ1 in complex with GARP expressed on transfected HEK293 or Sw480 cells (P01137 30-390, chain 2 of 2): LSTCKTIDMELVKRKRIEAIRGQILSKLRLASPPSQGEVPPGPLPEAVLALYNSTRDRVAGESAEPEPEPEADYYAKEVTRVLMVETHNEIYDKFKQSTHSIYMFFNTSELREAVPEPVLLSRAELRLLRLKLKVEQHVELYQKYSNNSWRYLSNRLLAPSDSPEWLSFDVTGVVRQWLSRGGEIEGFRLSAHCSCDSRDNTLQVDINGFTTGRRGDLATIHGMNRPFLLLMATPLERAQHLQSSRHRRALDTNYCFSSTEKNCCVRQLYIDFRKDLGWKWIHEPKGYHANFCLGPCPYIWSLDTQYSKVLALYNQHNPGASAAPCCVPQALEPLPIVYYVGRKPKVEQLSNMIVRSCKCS
T2 sequence (P01137 279-390 limits assumed): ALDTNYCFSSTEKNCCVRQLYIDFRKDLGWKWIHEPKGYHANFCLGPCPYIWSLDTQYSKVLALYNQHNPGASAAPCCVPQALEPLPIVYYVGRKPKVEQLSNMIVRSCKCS
T5 sequence (Q14392 20-627, chain 1 of 2): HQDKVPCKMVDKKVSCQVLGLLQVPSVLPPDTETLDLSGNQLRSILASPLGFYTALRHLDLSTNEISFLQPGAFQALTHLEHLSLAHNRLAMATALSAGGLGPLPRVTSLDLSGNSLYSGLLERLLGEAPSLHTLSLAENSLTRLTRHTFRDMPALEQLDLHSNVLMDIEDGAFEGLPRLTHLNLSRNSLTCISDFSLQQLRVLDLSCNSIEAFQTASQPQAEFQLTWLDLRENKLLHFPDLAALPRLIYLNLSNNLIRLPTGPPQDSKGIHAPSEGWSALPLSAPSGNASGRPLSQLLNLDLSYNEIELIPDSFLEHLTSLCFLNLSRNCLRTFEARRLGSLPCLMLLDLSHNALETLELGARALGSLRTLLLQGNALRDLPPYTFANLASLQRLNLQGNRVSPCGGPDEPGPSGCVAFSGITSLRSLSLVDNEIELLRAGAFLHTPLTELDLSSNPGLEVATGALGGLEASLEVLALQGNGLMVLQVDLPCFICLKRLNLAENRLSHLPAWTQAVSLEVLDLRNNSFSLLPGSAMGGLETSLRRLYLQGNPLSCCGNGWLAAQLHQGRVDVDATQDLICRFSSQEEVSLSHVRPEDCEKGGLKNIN
T5 sequence (P01137 30-390, chain 2 of 2, further chain): as the sequence (P01137 30-390, chain 2 of 2) above

B1: 4B16B9 (antibody, human IgG4 S228P, lambda, V domains shown)
VH: QMQLVQSGAEVKKPGSSVKVSCKASGGTFSSYAISWVRQAPGQGLEWMGGIIPMFGTTNYAQKFQGRVTIIADESTSTAYMELRSLRSDDTAVYYCARDREWEPAYGMDVWGQGTTVTVSS
VL: QSALTQPASVSGSPGQSITISCIGTSSDVGGYNYVSWYQQHPGKAPKLMIYDVSNRPSGVSNRFSGSKSGNTASLTISGLQAEDEAMYYCSAYTVSSTWVFGGGTKVTVLG
notes: Fully human, from a phage display scFv; also called proTGFβ1-GARP complex-selective antibody candidate
Q: What does the source list for B1?
A: binding result (TGFβ3 growth factor): no binding; binding result (TGFβ1 growth factor [1]): no binding; binding result (TGFβ2 growth factor): no binding; Kd (rGARP-proTGFβ1): 0.158 nM; IC50 of inhibition of TGFβ1 activation, TMLC reporter cells [2]: 1.9 nM

B2: 4B1C1 (antibody, human IgG4 S228P, kappa, V domains shown)
VH: EVQLVQSGGVVVQPGGSLRLSCAASGFTFDDYTMHWVRQAPGKGLEWVSLISWDGGSTYYADSVKGRFTISRDNSKNSLYLQMNSLRTEDTALYYCAKDADDSTFDIWGQGTMVTVSS
VL: ETTLTQSPATLSVSPGERVTLSCRASQSVSRNLAWYQQKPGQPPKLLIYWASTRESGVPDRFSGSGSGTDFTLTISSLQAEDVAVYYCQQYYSVPYTFGQGTKLEIKR
notes: Fully human, from a phage display scFv; also called 4B1Cl; proTGFβ1-GARP complex-selective antibody candidate
Q: Does B2 bind (TGFβ3 growth factor)?
A: Result: no binding

Q: Does B2 bind (TGFβ2 growth factor)?
A: Result: no binding

Q: Does B2 bind (TGFβ1 growth factor [3])?
A: Result: no binding

Q: And the Kd (hGARP-TGFβ1-LAP)?
A: The Kd was 11.3 nM.

Q: What about the Kd (rGARP-proTGFβ1) of the same binder?
A: Its Kd is 0.187 nM.

Q: And the “IC50 of inhibition of TGFβ1 activation, TMLC reporter cells” value [2]?
A: Its value is 0.178 nM.
